Experimental data reported in the supplement of paper PMC7877785.
± gives the uncertainty stated by the source.

Assay: self-splicing fitness, log relative to wild type (ln ratio); higher = more splicing; Tetrahymena group I intron in knt gene, E. coli kanamycin selection, DiMSum; sequences stand for … in CUCUCU…GGAGGGAAAAGUUAUCAGGCAUGCACCUGGUAGCUAGUCUUUAAACCAAUAGAUUGCAUCGGUUUAAAAGGCAAGACCGUCAAAUUGCGGGAAAGGGGUCAACAGCCGUUCAGUACCAAGUCUCAGGGGAAACUUUGAGAUGGCCUUGCAAAGGGUAUGGUAAUAAGCUGACGGACAUGGUCCUAACCACGCAGCCAAGUCCUAAGUCAACAGAUCUUCUGUUGAUAUGGAUGCAGUUCACAGACUAAAUGUCGGUCGGGGAAGAUGUAUUCUUCUCAUAAGAUAUAGUCGGACCUCUCCUUAAUGGGAGCUAGCGGAUGAAGUGAUGCAACACUGGAGCCGCUGGGAACUAAUUUGUAUGCGAAAGUAUAUUGAUUAGUUUUGGAGUACUCGUGGUCG
Outline: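 Library with all eight P1ex-region intron nucleotides randomised, intron inside the knt kanamycin-resistance gene on pET-22b(+), in E. coli BL21(DE3). Cells grew overnight at 37°C or 30°C on LB agar with or without 25 μg/mL kanamycin (plus 100 μg/mL carbenicillin, 50 μM IPTG, 0.2% rhamnose), in six replicate transformations. Pooled colonies were amplicon-sequenced on Illumina HiSeq 2500. DiMSum fitness is the error-weighted combination of wild-type-normalised replicate fold changes, kanamycin versus none.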

Sequence: UCACAGCAAUAUUACGGGAC
- self-splicing fitness (ln) (30 °C): -2.77 ± 0.21
- self-splicing fitness (ln) (37 °C): -1.76 ± 0.18

Sequence: UCACAGCAAUAUUACGGGCA
- self-splicing fitness (ln) (30 °C): -0.496 ± 0.075
- self-splicing fitness (ln) (37 °C): -0.337 ± 0.083

Sequence: UCACAGCAAUAUUACGGGGG
- self-splicing fitness (ln) (30 °C): -2.39 ± 0.15
- self-splicing fitness (ln) (37 °C): -2.03 ± 0.16

Sequence: UCACAGCAAUAUUACGUCGA
- self-splicing fitness (ln) (30 °C): -0.572 ± 0.068
- self-splicing fitness (ln) (37 °C): -0.734 ± 0.08

Sequence: UCACAGCAAUAUUACGUCGC
- self-splicing fitness (ln) (30 °C): -2.99 ± 0.19
- self-splicing fitness (ln) (37 °C): -2.13 ± 0.19

Sequence: UCACAGCAAUAUUACGUGAU
- self-splicing fitness (ln) (30 °C): -3.64 ± 0.12
- self-splicing fitness (ln) (37 °C): -2.76 ± 0.15

Sequence: UCACAGCAAUAUUACGUGCG
- self-splicing fitness (ln) (30 °C): -0.577 ± 0.056
- self-splicing fitness (ln) (37 °C): -0.105 ± 0.069

Sequence: UCACAGCAAUAUUACGUGUG
- self-splicing fitness (ln) (30 °C): -4.09 ± 0.15
- self-splicing fitness (ln) (37 °C): -2.13 ± 0.1

Sequence: UCACAGCAAUAUUACGUUAU
- self-splicing fitness (ln) (30 °C): -3.61 ± 0.12
- self-splicing fitness (ln) (37 °C): -2.75 ± 0.12

Sequence: UCACAGCAAUAUUACGUUUC
- self-splicing fitness (ln) (30 °C): -3.8 ± 0.19
- self-splicing fitness (ln) (37 °C): -3.02 ± 0.21

Sequence: UCAGAGCAAUAUUACGAAAG
- self-splicing fitness (ln) (30 °C): -2.84 ± 0.36
- self-splicing fitness (ln) (37 °C): -1.6 ± 0.38

Sequence: UCAGAGCAAUAUUACGAGAG
- self-splicing fitness (ln) (30 °C): -3.72 ± 0.27
- self-splicing fitness (ln) (37 °C): -3.27 ± 0.42

Sequence: UCAGAGCAAUAUUACGAUAA
- self-splicing fitness (ln) (37 °C): -2.46 ± 0.41

Sequence: UCAGAGCAAUAUUACGAUAG
- self-splicing fitness (ln) (30 °C): -4.05 ± 0.39
- self-splicing fitness (ln) (37 °C): -2.38 ± 0.39

Sequence: UCAGAGCAAUAUUACGAUAU
- self-splicing fitness (ln) (37 °C): -2.32 ± 0.33

Sequence: UCAGAGCAAUAUUACGCACA
- self-splicing fitness (ln) (30 °C): -1.74 ± 0.29
- self-splicing fitness (ln) (37 °C): 0.554 ± 0.43

Sequence: UCAGAGCAAUAUUACGCAGU
- self-splicing fitness (ln) (30 °C): -0.644 ± 0.22
- self-splicing fitness (ln) (37 °C): -1.83 ± 0.41

Sequence: UCAGAGCAAUAUUACGCUAA
- self-splicing fitness (ln) (37 °C): 1.19 ± 0.3

Sequence: UCAGAGCAAUAUUACGCUGA
- self-splicing fitness (ln) (30 °C): -3.04 ± 0.34
- self-splicing fitness (ln) (37 °C): -2.1 ± 0.37

Sequence: UCAGAGCAAUAUUACGGUCG
- self-splicing fitness (ln) (30 °C): -2.95 ± 0.16
- self-splicing fitness (ln) (37 °C): -1.32 ± 0.14

Sequence: UCAGAGCAAUAUUACGGUUA
- self-splicing fitness (ln) (30 °C): -2.88 ± 0.26
- self-splicing fitness (ln) (37 °C): -2.05 ± 0.22

Sequence: UCAGAGCAAUAUUACGGUUC
- self-splicing fitness (ln) (30 °C): -3.72 ± 0.33
- self-splicing fitness (ln) (37 °C): -1.84 ± 0.21

Sequence: UCAGAGCAAUAUUACGGUUG
- self-splicing fitness (ln) (30 °C): -3.9 ± 0.31
- self-splicing fitness (ln) (37 °C): -2.35 ± 0.26

Sequence: UCAGAGCAAUAUUACGGUUU
- self-splicing fitness (ln) (30 °C): -3.76 ± 0.28
- self-splicing fitness (ln) (37 °C): -2.07 ± 0.18

Sequence: UCAGAGCAAUAUUACGUGAU
- self-splicing fitness (ln) (30 °C): -3.03 ± 0.32
- self-splicing fitness (ln) (37 °C): -2.94 ± 0.26

Sequence: UCAGAGCAAUAUUACGUGGC
- self-splicing fitness (ln) (30 °C): -3.85 ± 0.25
- self-splicing fitness (ln) (37 °C): -2.32 ± 0.26

Sequence: UCAGAGCAAUAUUACGUUCA
- self-splicing fitness (ln) (30 °C): -1.71 ± 0.27
- self-splicing fitness (ln) (37 °C): -2.48 ± 0.39

Sequence: UCAGAGCAAUAUUACGUUGA
- self-splicing fitness (ln) (30 °C): -2.33 ± 0.12
- self-splicing fitness (ln) (37 °C): -1.54 ± 0.14

Sequence: UCAUAGCAAUAUUACGAAGU
- self-splicing fitness (ln) (30 °C): -3.43 ± 0.16
- self-splicing fitness (ln) (37 °C): -3.51 ± 0.39

Sequence: UCAUAGCAAUAUUACGACUU
- self-splicing fitness (ln) (30 °C): -3.87 ± 0.28
- self-splicing fitness (ln) (37 °C): -2.42 ± 0.39

Sequence: UCAUAGCAAUAUUACGAGAA
- self-splicing fitness (ln) (30 °C): -2.05 ± 0.3
- self-splicing fitness (ln) (37 °C): -2.55 ± 0.36

Sequence: UCAUAGCAAUAUUACGAUCA
- self-splicing fitness (ln) (30 °C): -1.3 ± 0.13
- self-splicing fitness (ln) (37 °C): -0.941 ± 0.16

Sequence: UCAUAGCAAUAUUACGAUCC
- self-splicing fitness (ln) (37 °C): -1.7 ± 0.41

Sequence: UCAUAGCAAUAUUACGCAGU
- self-splicing fitness (ln) (30 °C): -4.03 ± 0.36
- self-splicing fitness (ln) (37 °C): -3.4 ± 0.31

Sequence: UCAUAGCAAUAUUACGCCCA
- self-splicing fitness (ln) (30 °C): -2 ± 0.21
- self-splicing fitness (ln) (37 °C): -0.939 ± 0.18

Sequence: UCAUAGCAAUAUUACGCCCG
- self-splicing fitness (ln) (30 °C): -0.515 ± 0.21
- self-splicing fitness (ln) (37 °C): -0.292 ± 0.3

Sequence: UCAUAGCAAUAUUACGCGGC
- self-splicing fitness (ln) (30 °C): -3.53 ± 0.44

Sequence: UCAUAGCAAUAUUACGCUAC
- self-splicing fitness (ln) (30 °C): -2.17 ± 0.21
- self-splicing fitness (ln) (37 °C): -3.42 ± 0.29

Sequence: UCAUAGCAAUAUUACGCUAU
- self-splicing fitness (ln) (30 °C): -2.88 ± 0.39
- self-splicing fitness (ln) (37 °C): -2.08 ± 0.47

Sequence: UCAUAGCAAUAUUACGGAAA
- self-splicing fitness (ln) (30 °C): -2.84 ± 0.41
- self-splicing fitness (ln) (37 °C): -2.4 ± 0.28
